Reference: patent US20040234498A1 (Genentech, published 2004)

T1: human GITR (hGITR), full length, on cells (human, UniProt Q9Y5U5 26-241)
T1 sequence (looked up): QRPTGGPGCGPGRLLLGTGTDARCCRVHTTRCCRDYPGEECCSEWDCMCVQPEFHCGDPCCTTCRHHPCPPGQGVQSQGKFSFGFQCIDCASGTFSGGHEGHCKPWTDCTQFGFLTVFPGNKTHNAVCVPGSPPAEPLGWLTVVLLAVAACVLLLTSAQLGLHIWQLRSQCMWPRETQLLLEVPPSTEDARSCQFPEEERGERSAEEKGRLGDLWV

T2: CD95 immunoadhesin (CD95 ECD fused to hinge and Fc portion of human IgG) (human, UniProt P25445 26-173, limits assumed)
T2 construct: extracellular domain; also called Fas-IgG; Fas/Apo1; not shown: hinge and Fc portion of human IgG, as described for TNFR1 in Ashkenazi et al. 1991
T2 sequence (looked up): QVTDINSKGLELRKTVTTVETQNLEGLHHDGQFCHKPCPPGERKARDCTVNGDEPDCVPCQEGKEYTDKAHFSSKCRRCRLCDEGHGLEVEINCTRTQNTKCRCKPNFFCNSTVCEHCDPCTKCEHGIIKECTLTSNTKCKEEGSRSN

T3: DR4 immunoadhesin (DR4 ECD fused to hinge and Fc portion of human IgG) (human, UniProt O00220 24-239, limits assumed)
T3 construct: extracellular domain; not shown: hinge and Fc portion of human IgG, as described for TNFR1 in Ashkenazi et al. 1991
T3 sequence (looked up): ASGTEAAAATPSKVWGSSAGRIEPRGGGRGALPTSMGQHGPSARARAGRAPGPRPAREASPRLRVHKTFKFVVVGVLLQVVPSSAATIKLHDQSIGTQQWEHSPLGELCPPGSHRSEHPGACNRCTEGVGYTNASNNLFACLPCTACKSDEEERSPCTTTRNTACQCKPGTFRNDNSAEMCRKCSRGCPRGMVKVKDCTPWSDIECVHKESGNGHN

T4: TNFR1 immunoadhesin (TNFR1 ECD fused to hinge and Fc portion of human IgG) (human, UniProt P19438 30-211, limits assumed)
T4 construct: extracellular domain; also called TNFR1-IgG; not shown: hinge and Fc portion of human IgG, as described in Ashkenazi et al. 1991
T4 sequence (looked up): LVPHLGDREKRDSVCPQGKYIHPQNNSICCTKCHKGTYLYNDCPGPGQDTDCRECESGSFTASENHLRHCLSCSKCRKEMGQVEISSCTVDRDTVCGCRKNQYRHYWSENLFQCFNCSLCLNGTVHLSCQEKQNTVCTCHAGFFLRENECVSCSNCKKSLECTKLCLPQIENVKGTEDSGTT

T5: TNFR2 immunoadhesin (TNFR2 ECD fused to hinge and Fc portion of human IgG) (human, UniProt P20333 23-257, limits assumed)
T5 construct: extracellular domain; not shown: hinge and Fc portion of human IgG, as described for TNFR1 in Ashkenazi et al. 1991
T5 sequence (looked up): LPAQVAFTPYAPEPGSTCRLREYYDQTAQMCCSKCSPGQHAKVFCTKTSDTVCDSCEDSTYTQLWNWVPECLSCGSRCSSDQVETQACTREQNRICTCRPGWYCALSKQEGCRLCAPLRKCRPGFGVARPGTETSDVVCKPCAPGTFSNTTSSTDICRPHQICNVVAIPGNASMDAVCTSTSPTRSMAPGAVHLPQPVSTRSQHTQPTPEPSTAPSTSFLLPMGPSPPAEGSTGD

T6: Apo-3 immunoadhesin (Apo-3 ECD fused to hinge and Fc portion of human IgG) (human, UniProt Q93038 25-199)
T6 construct: extracellular domain; also called DR3; wsl-1; not shown: hinge and Fc portion of human IgG, as described for TNFR1 in Ashkenazi et al. 1991
T6 sequence (looked up): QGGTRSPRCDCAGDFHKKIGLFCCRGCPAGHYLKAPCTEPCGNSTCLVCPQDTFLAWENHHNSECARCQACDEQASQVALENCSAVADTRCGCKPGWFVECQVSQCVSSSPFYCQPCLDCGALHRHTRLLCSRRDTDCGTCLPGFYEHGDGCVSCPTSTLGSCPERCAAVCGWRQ


How the values were obtained:
[1] = molecular target: T1, human GITR (hGITR), full length, on …; test: cell-based or functional assay
[2] = molecular target: T2, CD95 immunoadhesin (CD95 ECD fused to …); test: co-precipitation with protein A-sepharose, SDS-PAGE, autoradiography
Method: (§1) A soluble DNA19355 polypeptide was also prepared by expressing the ECD in E. coli cells (as described in Example 3 above). The soluble DNA19355 ECD molecule was then labeled with ¹²⁵I. For comparison, immunoadhesin constructs were also made of the following TNF receptor family members: CD95, DR4, DR5, TNFR1, TNFR2, and Apo-3. CD95, DR4, DR5, TNFR1, TNFR2, and Apo-3 immunoadhesins were prepared by fusing each receptor's ECD to the hinge and Fc portion of human IgG, as described previously for TNFR1 [Ashkenazi et al., Proc. Natl. Acad. Sci., 88:10535-10539 (1991)]. The respective TNF receptor family members are described (and relevant references cited) in the Background of the Invention section.
(§2) For the co-precipitation assay, each immunoadhesin (5 microgram) was incubated with ¹²⁵I-labeled soluble DNA19355 polypeptide (1 microgram) for 1 hour at 24° C., followed by protein A-sepharose for 30 minutes on ice. The reaction mixtures were spun down and washed several times in PBS, boiled in SDS-PAGE buffer containing 20 mM dithiothreitol and then resolved by SDS-PAGE and autoradiography.

[3] = molecular target: T3, DR4 immunoadhesin (DR4 ECD fused to …); test: as above
Method: as §1, §2

[4] = molecular target: T7, DR5 immunoadhesin (DR5 ECD fused to hinge and Fc portion of human IgG) (human, UniProt O14763 56-210, limits assumed); test: as above
T7 construct: extracellular domain; also called Apo-2; not shown: hinge and Fc portion of human IgG, as described for TNFR1 in Ashkenazi et al. 1991
Method: as §1, §2

[5] = molecular target: T4, TNFR1 immunoadhesin (TNFR1 ECD fused to …); test: as above
Method: as §1, §2

[6] = molecular target: T5, TNFR2 immunoadhesin (TNFR2 ECD fused to …); test: as above
Method: as §1, §2

[7] = molecular target: T6, Apo-3 immunoadhesin (Apo-3 ECD fused to …); test: as above
Method: as §1, §2

[8] = molecular target: T4, TNFR1 immunoadhesin (TNFR1 ECD fused to …); test: FACS on HUVEC cells (endogenous DNA19355 transcripts)
Method: The DNA19355 polypeptide was identified in a human umbilical vein endothelial cell (HUVEC) library, and the DNA19355 polypeptide transcripts are readily detectable in HUVEC by RT-PCR (data not shown). […] HUVEC cells were purchased from Cell Systems (Kirkland, Wash.) and grown in a 50:50 mix of Ham's F12 and Low Glucose DMEM media containing 10% fetal bovine serum, 2 mM L-glutamine, 10 mM Hepes, and 10 ng/ml basic FGF. Cells were FACS sorted with PBS, hGITR-IgG, TNFR1-IgG or Fas-IgG as a primary antibody and goat anti-human F(ab′)2 conjugated to phycoerythrin (CalTag, Burlingame, Calif.).

Binder | secreted TNF-alpha levels from primary human T cells (ELISA of culture supernatants) [1] | binding result [2] | binding result [3] | binding result [4] | binding result [5] | binding result [6] | binding result [7] | binding result [8]
soluble DNA19355 polypeptide (His10-tagged extracellular region, amino acids 52 to 177, expressed in E. coli) (ligand, 125I-labeled (radioiodinated) in the co-precipitation assay, also called soluble DNA19355 ECD molecule; radioiodinated soluble DNA19355 polypeptide) MGHHHHHHHHHHSSGHIDDDDKHMETAKEPCMAKFGPLPSKWQMASSEPPCVNKVSDWKLEILQNGLYLIYGQVAPNANYNDVAPFEVRLYKNKDMIQTLTNKSKIQNVGGTYELHVGDTIDLIFNSEHQVLKNNTYWGIILLANPQFIS | ~20 fold | no binding | no binding | no binding | no binding | no binding | no binding | 
full length DNA19355 polypeptide on cells (ligand, also called full-length DNA19355 protein; GLITTER) MCLSHLENMPLSHSRTQGAQRSSWKLWLFCSIVMLLFLCSFSWLIFIFLQLETAKEPCMAKFGPLPSKWQMASSEPPCVNKVSDWKLEILQNGLYLIYGQVAPNANYNDVAPFEVRLYKNKDMIQTLTNKSKIQNVGGTYELHVGDTIDLIFNSEHQVLKNNTYWGIILLANPQFIS |  |  |  |  |  |  |  | no binding
